Measured values taken from US20160194391A1 (AstraZeneca / MedImmune, published 2016).
Several values for one entry are separate records, joined by “and”; a condition that tells them apart may be missing. Equal values may be shown once.

What was measured:
[1] = molecular target: T1, IL-23 p40-p19-His (human); experiment: ELISA on IL-23 p40-p19-His (coated directly or through anti-His)
T1 construct: Single-chain fusion coated on the IL-23 ELISA plates; also called p40:p19-6×HIS
T1 chain: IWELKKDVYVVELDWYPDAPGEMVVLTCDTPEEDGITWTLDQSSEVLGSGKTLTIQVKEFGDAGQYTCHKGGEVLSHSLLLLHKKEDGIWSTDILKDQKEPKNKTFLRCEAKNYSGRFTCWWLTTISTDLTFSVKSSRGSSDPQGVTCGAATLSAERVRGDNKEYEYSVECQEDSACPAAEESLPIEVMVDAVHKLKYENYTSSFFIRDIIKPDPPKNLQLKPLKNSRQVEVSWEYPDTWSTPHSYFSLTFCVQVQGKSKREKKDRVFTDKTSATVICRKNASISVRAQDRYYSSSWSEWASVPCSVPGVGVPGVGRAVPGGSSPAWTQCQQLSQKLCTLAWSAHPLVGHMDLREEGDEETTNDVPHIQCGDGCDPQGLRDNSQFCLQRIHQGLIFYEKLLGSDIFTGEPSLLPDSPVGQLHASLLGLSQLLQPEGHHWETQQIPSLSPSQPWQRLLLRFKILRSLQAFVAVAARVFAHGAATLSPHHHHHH
Protocol: For the indirect binding method anti-His antibody (Cat # A00613, GenScript Corp., New Jersey, USA) was added to the plates in 100 μl/well of PBS at 0.01-0.02 ug/ml. Plates were incubated 1 hour at 37C, or overnight at 4C. To block non-specific binding 100 μl/well PBS containing 10% goat serum (Cat #16210-072, Invitrogen, USA) was added to each well, after which plates were rinsed 5 times with de-ionized water. IL-23 p40-p19-His (SEQ ID 4) in 100 μl/well PBS/10% goat serum at 0.5 μg/ml was added and incubated for 1 hour at room temperature.
For the direct binding method IL-23 p40-p19-His (SEQ ID 4) was added to an ELISA plate in 100 μl PBS at 0.5 μg/ml. Plates were incubated 1 hour at 37C, or overnight at 4C. To block non-specific binding 100 μl/well PBS containing 10% goat serum (Cat #16210-072, Invitrogen, USA) was added to each well. Plates were incubated 1 hour at room temperature.
After IL-23 binding, plates were rinsed 5 times with de-ionized water. To each well was added 50 μl PBS/10% goat serum. Test samples were then added at 50 μl/well. Plates were incubated 1 hour at room temperature and were rinsed 5 times with de-ionized water. To each well was added 100 μl peroxidase-conjugated goat anti-rabbit IgG (Cat. #111-035-008, Jackson Immuno Research) diluted 1:5000 in PBS/10% goat serum. Plates were incubated 1 hour at room temperature, then washed 5 times with de-ionized water. TMB substrate (Thermo Scientific, Rockford, Ill., USA) was added at 100 μl/well. The reaction was stopped with 100 μl N H₂SO₄ (JT Baker, Phillipsburg, N.J., USA). Absorbance was measured at 450 nm using a Molecular Devices M2 plate reader.

[2] = molecular target: T2, human dimeric IL-23 (eBiosciences 34-8239) (human, UniProt P29460 23-328; Q9NPF7 20-189); experiment: cell-based or functional assay
T2 sequence (looked up) 1: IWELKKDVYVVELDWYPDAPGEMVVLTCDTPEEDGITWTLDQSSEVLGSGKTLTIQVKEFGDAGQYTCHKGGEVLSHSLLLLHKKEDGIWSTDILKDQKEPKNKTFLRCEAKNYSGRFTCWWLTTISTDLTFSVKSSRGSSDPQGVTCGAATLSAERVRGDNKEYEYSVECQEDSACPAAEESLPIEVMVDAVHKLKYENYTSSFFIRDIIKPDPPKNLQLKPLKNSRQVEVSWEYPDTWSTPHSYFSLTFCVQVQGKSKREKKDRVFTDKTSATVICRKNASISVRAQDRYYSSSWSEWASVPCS
T2 sequence (looked up) 2: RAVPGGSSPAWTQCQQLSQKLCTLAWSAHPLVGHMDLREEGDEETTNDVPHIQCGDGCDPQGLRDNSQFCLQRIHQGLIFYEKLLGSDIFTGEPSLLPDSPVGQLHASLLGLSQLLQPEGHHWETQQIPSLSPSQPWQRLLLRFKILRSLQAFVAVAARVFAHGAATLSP

[3] = molecular target: T3, human IL-6 (human, UniProt P05231 30-212); experiment: cell-based or functional assay
[4] = molecular target: T2, human dimeric IL-23 (eBiosciences …); experiment: SPR, bispecific held on captured IL-6 (~240 RU), human dimeric IL-23 as analyte (3-25 nM)
Protocol: SPR of bispecific scFvs were carried out as previously described for measuring the anti-IL-6 moiety; however, protocol modifications were required in order to determine the binding kinetics of the anti-IL-23 scFv, 31A12. Briefly, IL-23 binding by the bispecific was performed by first immobilizing the bispecific with IL-6 as described, but at a constant density (˜240 RU). Binding and dissociation of a recombinant human dimeric IL-23 (34-8239, eBiosciences, San Diego, Calif.) was assayed in concentrations ranging from 3 to 25 nM using the same parameters detailed above.

[5] = molecular target: T4, monkey IL-12 (macaque) (macaque, UniProt P48091 23-219; P48095 23-328); experiment: cell-based or functional assay
T4 sequence (looked up) 1: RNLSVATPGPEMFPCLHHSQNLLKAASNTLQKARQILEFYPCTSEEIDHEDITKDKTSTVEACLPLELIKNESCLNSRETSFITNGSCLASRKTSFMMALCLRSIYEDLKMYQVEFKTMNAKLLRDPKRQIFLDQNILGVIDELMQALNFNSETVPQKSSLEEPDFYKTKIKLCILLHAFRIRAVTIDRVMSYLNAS
T4 sequence (looked up) 2: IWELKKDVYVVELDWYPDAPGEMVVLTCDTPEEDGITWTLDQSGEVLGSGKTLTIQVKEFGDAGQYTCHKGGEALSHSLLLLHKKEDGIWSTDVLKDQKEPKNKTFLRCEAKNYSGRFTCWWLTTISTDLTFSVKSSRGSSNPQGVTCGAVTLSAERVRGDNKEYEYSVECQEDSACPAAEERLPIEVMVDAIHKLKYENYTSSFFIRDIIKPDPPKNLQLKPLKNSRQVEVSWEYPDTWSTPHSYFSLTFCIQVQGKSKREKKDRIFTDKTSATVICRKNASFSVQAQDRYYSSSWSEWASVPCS

[6] = molecular target: T4, monkey IL-12 (macaque); experiment: cell-based or functional assay; remark: listed apart in the source
[7] = molecular target: T3, human IL-6; experiment: cell-based or functional assay; remark: listed apart in the source
[8] = molecular target: T2, human dimeric IL-23 (eBiosciences …); experiment: cell-based or functional assay; remark: listed apart in the source
[9] = molecular target: T5, 3×FLAG-IL-6 (human); experiment: SPR, 3×FLAG-IL-6 captured by anti-FLAG M2 on protein G, bispecific as analyte
T5 construct: it may hold the pre-pro-trypsin leader

[10] = molecular target: T5, 3×FLAG-IL-6; experiment: SPR, 3×FLAG-IL-6 captured by anti-FLAG M2 on protein G, scFv as analyte (1-100 nM)
[11] = molecular target: T5, 3×FLAG-IL-6; experiment: SPR, 3×FLAG-IL-6 captured by anti-FLAG M2 on protein G, scFv as analyte

T5 sequence (chain, as listed by the source limits assumed): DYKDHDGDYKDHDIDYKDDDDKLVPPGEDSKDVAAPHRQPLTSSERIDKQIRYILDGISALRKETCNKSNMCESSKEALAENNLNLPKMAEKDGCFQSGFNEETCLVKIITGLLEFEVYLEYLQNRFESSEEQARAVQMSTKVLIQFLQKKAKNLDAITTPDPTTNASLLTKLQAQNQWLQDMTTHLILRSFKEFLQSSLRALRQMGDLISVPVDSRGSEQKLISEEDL

B1: 34E11 chimeric mAb (antibody, V domains shown)
VH: QEQLKESGGGLVTPGGSLTLTCTVSGFSLSTYDINWVRQAPGKGLEWIGYIYRGSPYYADWAKGRFTISSTSTTVGLKITSPTTVDTATYFCTRNLYSVNVLWGPGTLVTVS
VL: LVMTQTPSSTSAAVGDTVTIKCQASQSISSRLAWYQQKPGQPPKLLIYSASTLASGVPSRFKGSGSGTDYTLTISGVQREDAATYYCLGSYSNTIRTFGAGTKVEIKR
notes: Rabbit/human chimeric IgG (human IgG1, kappa); HEK293; also called 34E11 clone
binding result [1]: binds | EC50, inhibition of IL-23 induced IL-17 secretion by mouse spleen cells [2]: 0.05 ng/mL

B2: 13A8c-PEG20 (scFv)
scFv: DIQLTQSPSFLSASVGDRVTITCQASQSISNELSWYQQKPGKAPKLLIYRASTLTSGVPSRFSGSGSGTEFTLTISSLQPEDFATYYCQQGYNSNDVDNVFGGGTKVEIKGGGGSGGGGSGGGGSGGGGSEVQLVESGGGLVQPGGSLRLSCTVSGIDLSSYDLSWVRQAPGKGLEWVGYIYTDSSTWYANWAKGRFTISRDNSKNTLYLQLNSLRAEDTAVYYCARGSTDYAFDTRLDLWGQGTLVTVSS
modifications: C-terminal azidohomoalanine (Aha) conjugated to 20 kDa linear PEG bis-alkyne
EC50 (pg/mL) of the folded scFv-PEG [3]: 93 pg/mL

B3: 13A8L-PEG20 (scFv)
scFv: B2 scFv
modifications: azidohomoalanine (Aha) in the linker (13A8L) conjugated to 20 kDa linear PEG bis-alkyne
EC50 (pg/mL) of the folded scFv-PEG [3]: 278 pg/mL

B4: 13A8n-PEG20 (scFv)
scFv: B2 scFv
modifications: N-terminal azidohomoalanine (Aha) conjugated to 20 kDa linear PEG bis-alkyne
EC50 (pg/mL) of the folded scFv-PEG [3]: 1980 pg/mL

B5: 31A12c-PEG-13A8c bispecific (bispecific antibody)
scFv 1: DIQLTQSPSFLSASVGDRVTITCQASEDIESYLAWYQQKPGKAPKLLIYSASTLTSGVPSRFSGSGSGTEFTLTISSLQPEDFATYYCLGADDTTTVFGGGTKVEIKGGGGSGGGGSGGGGSGGGGSEVQLVESGGGLVQPGGSLRLSCTASGFSLSSYWLTWVRQAPGKGLEWVGTIATSSTYYASWAKGRFTISRDNSKNTLYLQLNSLRAEDTAVYYCARGLTTDYDLDLWGQGTLVTVSS
scFv 2: B2 scFv
modifications: C-terminal azidohomoalanine (Aha) joined through a linear 20 kDa PEG to the Aha of the other scFv
notes: also called 31A12c-20KPEG-13A8c; 13A8c-PEG-31A12c
Kd [4]: 0.0918 nM | koff [4]: 7.11e-05 s⁻¹ | kon [4]: 773000 M⁻¹ s⁻¹ | IC50 (read off the curve) [5]: ~10 ng/mL and ~20 ng/mL | IC50 (read off the curve) (interferon-gamma from NK92 cells, OD450) [6]: ~10 ng/mL | Anti IL-6 EC50, batch A [7]: 0.082 ng/mL | Anti IL-6 EC50, batch B [7]: 0.064 ng/mL | Anti IL-6 EC50, batch C [7]: 0.136 ng/mL | Anti IL-23 EC50, batch A [8]: 2.94 ng/mL | Anti IL-23 EC50, batch B [8]: 1.19 ng/mL | Anti IL-23 EC50, batch C [8]: 2.04 ng/mL | Kd [9]: 0.215 nM | koff [9]: 5.14e-05 s⁻¹ | kon [9]: 290000 M⁻¹ s⁻¹

B6: 35H4 chimeric mAb (antibody, V domains shown)
VH: QSLEESGGRLVTPGGSLTLTCTVSGIDLSDYDMSWVRQAPGKGLEWIGIVYDIGTIYYAPWAEGRFTISKTSTTMDLKMSSLTTEDTATYFCATEAPGYSDGDIWGPGTLVTVSS
VL: LVMTQTPSSVSAAVGGTVTINCQASETVGNNNRLSWYQQKPGQPPKLLIYGAATLASGVPSRFKGSGSGAHFTLTISNVQREDVATYVCGGYKDSTDVGFGGGTELEILR
notes: Rabbit/human chimeric IgG (human IgG1, kappa); HEK293; also called 35H4 clone
binding result [1]: binds

B7: 16C6 chimeric mAb (antibody, V domains shown)
VH: QSVEESGGRLVTPGTPLTLTCTVSGFSLNSYSMSWVRQAPGKGLEWIGVIGLGGSAYYASWAKGRFTISGASTTVDLKITSPTTEDTATYFCARATYSDDNIWGPGTLVTVSS
VL: DVVMTQTPSSTSAAVGGTVTIKCQASQSISSWLSWYQQKPGQRPKPLIVRASTLASGVPSRFKGNRSGTEYTLTISGVQREDAAAYYCLGGDGNVSNFGGGTKVVVVR
notes: Rabbit/human chimeric IgG (human IgG1, kappa); HEK293
binding result [1]: binds | EC50, inhibition of IL-23 induced IL-17 secretion by mouse spleen cells [2]: 0.219 ng/mL

B8: 28D2-C Aha (scFv)
scFv: MAHHHHHHPPPPAAADIQLTQSPSFLSASVGDRVTITCQASEDLFSSLAWYQQKPGKAPKLLIYSASTLASGVPSRFSGSGSGTDFTLTISSLQPEDFATYYCLGLYYYLTPDPIYGFGGGTKVEIKGGGGSGGGGSGGGGSGGGGSEVQLVESGGGLVQPGGSLRLSCTVSGLSLSKNAIAWVRQAPGKGLEWVGIIYAGGATTYASWAKGRFTISRDNSKNTLYLQLNSLRAEDTAVYYCAREYAGDSYYTGYTQLDLWGQGTLVTVSSGM
modifications: azidohomoalanine (Aha) in place of the single Met, at the C terminus
Kd [10]: 0.052 nM | koff [10]: 7.6e-05 s⁻¹ | kon [10]: 1.45e+06 M⁻¹ s⁻¹ | Kd [11]: 0.0674 nM | koff [11]: 7.1e-05 s⁻¹ | kon [11]: 1.05e+06 M⁻¹ s⁻¹
